From the RNAGym collection of RNA variant scans (doi:10.1073/pnas.2313332121)
Fewer inactive variants are shown than the library holds.

B1: TPR 5TU (parent)
chain: GGAUCUUCUCGAUCUAACAAAAAAGACAAAUCUGCCACAAAGCUUGAGAGCAUCUUCGGAUGCAGAGGCGGCAGCCUUCGGUGGCGCGAUAGCGCCAACGUUCUCAACUAUGACACGCAAAACGCGUGCUCCGUUGAAUGGAGUUUAUCAUG

Variants of: B1
Experiment: polymerase ribozyme fitness, log enrichment relative to wild type (log ratio); higher = more active; in vitro selection for triplet polymerase activity
How it was run: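 Genotype fitness is the logarithm of its enrichment divided by wild-type enrichment, using inverse-variance-weighted averages of replicates. That logarithm is base 2. Enrichment was measured by Illumina sequencing of input and output libraries from one triplicate in vitro selection round, with frozen incubation at −7 °C, on PCR-built, transcribed mutant libraries of each subunit of a heterodimeric triplet polymerase ribozyme, retaining genotypes with ≥10 input reads and ≥1 read per output.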

Variant | polymerase ribozyme fitness (log ratio)
A52C C57U G80C A98U | -2.02
G50U C85A A97U G140A | ≤ -4.2
G50C G86A U102A G143U | ≤ -4.2
C51G G92C | -2.71
A52G C87U C116U C149G | -3.76
C51G A73G G94U C95U C118A A142U G152A | ≤ -4.2
C51A G65A G81U C96G A106U G136U | ≤ -4.2
U53A A122U A138U | -4.07
G50C C57U U82G A121G G143C | ≤ -4.2
A52C U61A G88U C96U G136U | ≤ -4.2
G50C C116A U144A C149G | ≤ -4.2
G50C G84U | -3.79
C51U G67A G83U G94A A98C C99G U109C A120U U145G | ≤ -4.2
A52C U148G | ≤ -4.2
C51U U55C A106G U151G | ≤ -4.2
U53A C69U | -4.11
A52G G65A G68U G92U C103U A119U U139C | ≤ -4.2
A52G U55C C105G U109A | -1.97
G50U A52G C99G | -2.55
C51G A52U C63A A138U | ≤ -4.2
A52G C96G C131U | -0.425
A52G C85G G141A | -1.37
U53A C57U | -1.2
U53A C57A | -0.577

Variant | polymerase ribozyme fitness (log ratio)
A52U C85U | -1.59
A52C C87U A91U C116U G128U | ≤ -4.2
G50C G65C C87U | -4.13
A52U C93A U109C U111G G140C G152A | ≤ -4.2
G50U C57U A110G G140A | ≤ -4.2
C51A C76G G88C C103A C125A G140A | ≤ -4.2
G50U C57U | 1
A52G G59C A60C C96G G126A A142U | ≤ -4.2
A52G C85U G92A C96A | ≤ -4.2
C51U U53A C93A | -4.05
U53A C75G | ≤ -4.2
A52C G92U | -1.12
G50U C54U G81C C85A G117A | -0.79
G50U A97G | -0.0233
A52C U56C G84U | -4.01
C51A G84C | -2.99
C51A G84A | -1.26
A52G U55A | -0.0825
A52G U55C | -0.523
A52U C87U | -2.81
C51A A64G C87A G128U G140C | ≤ -4.2
A52G U55A U90G C96U C103A C131G | ≤ -4.2
A52G C85U U104G | -0.901
A52G C63G | -0.179

Variant | polymerase ribozyme fitness (log ratio)
A52G U53G U77G C131G | ≤ -4.2
G50C G83C G94A C132U U135C A142U | ≤ -4.2
A52C U56A C75U A89U U90G C95G C123G C125A | ≤ -4.2
G50C A73C C95G C105G | ≤ -4.2
G50C U56A G62C C72U C95U | ≤ -4.2
G50A U56A G62C C63A C96G | ≤ -4.2
A52U G71C G92A C96G | ≤ -4.2
G50C C51U C54G C87U | ≤ -4.2
A52U C57A C63U G94U A150G | ≤ -4.2
C51U C57A C63U G65C | ≤ -4.2
C51U G58C A73G G81A C116U | -0.931
A52C G58U C75A C93A | ≤ -4.2
A52C G84U C125U | -2.64
C51G G81C C85G C123U G143A | -3.82
A52G G59A C75U | -0.737
C51U G94U C114A G140A | ≤ -4.2
G50C G83C U135A | ≤ -4.2
C51G U90G | ≤ -4.2
A52U G140C | ≤ -4.2
C51A A91G C95U A97G A119U | ≤ -4.2
U53A A91G U144G | -2.54
C51G G71A A122G | ≤ -4.2
G50C G59C | -3.38
G50U G92C | -0.0562

Variant | polymerase ribozyme fitness (log ratio)
U53A A122G | -0.748
A52C C75U G88C C96U C105G G136U | ≤ -4.2
C51U A89U G92C C129U | -2.18
G50U C132U | -0.763
A52U G86C A91C U139C | ≤ -4.2
U53A A110G | -3.7
G50U G58U | 0.771
C51A U101C C123A | -2.09
A52G G58A C72A G83U C96U | ≤ -4.2
C51U G70C C93G | ≤ -4.2
C51U C118U | -0.957
A52G G84A C99U A120G | -1.11
A52C A107C A122C A138G | ≤ -4.2
A52G G80U | -3.34
C51U U56A G65U G81C G136C A138G G141C A142G | ≤ -4.2
G50A U78A G84A G100C A137G | ≤ -4.2
A52U A89C | -3.05
A52C C87A C93U A98U G128U U148G | ≤ -4.2
A52C A73U C85A C103A | ≤ -4.2
A52G U82G | 0.0484
A52U U53A U101G | -2.73
A52G U53A | -0.907
U53A A64G C103G G124A | ≤ -4.2
A52G U53A G83U | -2.28

Variant | polymerase ribozyme fitness (log ratio)
A52C A66G G71U C125U | ≤ -4.2
G50C G74A G92U | ≤ -4.2
A52G U77G G88C | ≤ -4.2
U53A C54A G59U A64U C93G A137C | ≤ -4.2
G50A U134C | -1.29
C51U G59A C95A C125G | -1.53
G50U G81A C93G | -3.96
A52G G65A U145A | -1.38
A52C U102G A147U | -3.59
A52C U145G | -1.17
C51U C96A A121C U134A | -3.19
A52C C76U U101G | -4.01
G50U G94U C103U | -2.08
G50U C95U | -0.241
G50C U56G A64G G83A C105G U109G | ≤ -4.2
C51U U56G C75U U134C | -2.81
G50U G84C C85G A106G C116U G152A | ≤ -4.2
C51U A142C | -0.909
G50C C57G C118G | -3.68
A52U G86C G88A C105A G141U | ≤ -4.2
A52G C93U U101C C105U | -2.43
C51U C87A A91U U144G | ≤ -4.2
C51A U82G A115U | -3.17
U53A C75U C103U | -3.14

Variant | polymerase ribozyme fitness (log ratio)
G50C A52G G62A G74U G86C C116U | ≤ -4.2
C51U G80A G81A A150U | -1.5
C51U C85A G143C | -2.7
A52C A138G | -3.62
G50C A52C C118G | -3.55
U53A C54U C57A G62A C85A G126U | ≤ -4.2
A52C C69A C105U | -3.13
A52C G59U | -0.875
C51U A60G G86A | -1.75
G50U A91G C103G | ≤ -4.2
G50U C76A G126U U148G | ≤ -4.2
A52G C72U | -0.83
C51G G81U C96U | -1.16
A52C C93U | -2.33
C51U G94A C96U G126C | -1.72
G50C C85A U144G | ≤ -4.2
A52C U55A A60C C76U G83A C85U C129G A150G | ≤ -4.2
A52G G74A A137U | ≤ -4.2
A52G G143C | -3.77
C51U A52U G94U | -2.8
U53A A91G | -3.09
C51U A52C | -1.33
A52U C85U C96A C116U | -2.69
C51U A60U | -0.791

Variant | polymerase ribozyme fitness (log ratio)
C51A U55A G94A C125A | -3.04
G50U G136U C149G | -4.16
C51A G58C U111A | ≤ -4.2
U53A C54G C95A | -1.73
C51U G70A A91C A97C U144C | ≤ -4.2
A52G G58A A66U U77G G94A C99G A107G | ≤ -4.2
G50C G86C | ≤ -4.2
G50C G86U | -3.89
G50U G74A C93U A106C U148C | ≤ -4.2
C51U A60G A66C U82C G94A U109A G136A A138C | ≤ -4.2
A52G G117U | 0.374
A52G G117A | -0.121
A52U G58U U90C C118U G126C A138C | ≤ -4.2
A52C U53A C85U A107U A119C C125U | ≤ -4.2
A52C G83A | -2.46
C51U C75U C87U U104C A115G A121U A142C | -4.13
C51U C93G | -3.69
C51U G86U U145G | -2.27
U53A A73U C85U G124U U134C U135C | ≤ -4.2
G50C C96G | -2.66
G50C C96U | -2.14
C51G A60G A73G C123G | -3.71
A52U U53A C96U A119C | -2.05
